Patent publication US20260049138A1 (Chugai, published 2026)

Biological target: T1, CD3ε homodimer protein (human, UniProt P07766 23-126, limits assumed)
T1 construct: also called CD3 (CD3ε)
Assay: SPR Biacore T200, CD3ε homodimer on chip;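 also: Light-chain single-residue variant antibodies injected over amine-coupled CD3ε homodimer on a CM4 chip at 25 °C, bound amount divided by that of the GLS3000-containing antibody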

T1 sequence (P07766 23-126 limits assumed): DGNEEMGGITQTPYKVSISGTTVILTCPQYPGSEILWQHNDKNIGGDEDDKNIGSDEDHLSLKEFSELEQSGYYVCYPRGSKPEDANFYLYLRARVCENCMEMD

Binder	ratio of amount bound vs unaltered GLS3000
GLS3000 S56F one-arm antibody (antibody, human IgG1, kappa, L234A L235A, N297A, name in Kabat numbering) heavy: QVQLVESGGGVVQPGRSLRLSCAASGFTFSNAWMHWVRQAPGKGLEWVAQIKAKSNNYATYYAESVKGRFTISRDDSKNSLYLQMNSLKTEDTAVYYCRYVHYGAYYGVDAWGQGTTVTVSSASTKGPSVFPLAPSSKSTSGGTAALGCLVKDYFPEPVTVSWNSGALTSGVHTFPAVLQSSGLYSLSSVVTVPSSSLGTQTYICNVNHKPSNTKVDKKVEPKSCDKTHTCPPCPAPEAAGGPSVFLFPPKPKDTLMISRTPEVTCVVVDVSHEDPEVKFNWYVDGVEVHNAKTKPREEQYASTYRVVSVLTVLHQDWLNGKEYKCKVSNKALPAPIEKTISKAKGQPREPQVYTLPPSRCELTKNQVSLSCAVKGFYPSDIAVEWESNGQPENNYKTTPPVLDSDGSFFLVSKLTVDKSRWQQGNVFSCSVMHEALHNHYTQKSLSLSPDYKDDDDK EPKSSDKTHTCPPCPAPELLGGPSVFLFPPKPKDTLMISRTPEVTCVVVDVSHEDPEVKFNWYVDGVEVHNAKTKPREEQYNSTYRVVSVLTVLHQDWLNGKEYKCKVSNKALPAPIEKTISKAKGQPREPQVCTLPPSRDELTKNQVSLWCLVKGFYPSDIAVEWESNGQPENNYKTTPPVLDSDGSFFLYSKLTVDKSRWQQGNVFSCSVMHEALHNRYTQKSLSLSP light: DIVMTQSPLSLPVTPGEPASISCRSSQSLVHSNRNTYLHWYQQKPGQAPRLLIYKVSNRFFGVPDRFSGSGSGTDFTLKISRVEAEDVGVYYCGQGTQVPYTFGQGTKLEIKRTVAAPSVFIFPPSDEQLKSGTASVVCLLNNFYPREAKVQWKVDNALQSGNSQESVTEQDSKDSTYSLSSTLTLSKADYEKHKVYACEVTHQGLSSPVTKSFNRGEC	1.32
GLS3000 S56L one-arm antibody (antibody, human IgG1, kappa, L234A L235A, N297A, name in Kabat numbering) heavy: QVQLVESGGGVVQPGRSLRLSCAASGFTFSNAWMHWVRQAPGKGLEWVAQIKAKSNNYATYYAESVKGRFTISRDDSKNSLYLQMNSLKTEDTAVYYCRYVHYGAYYGVDAWGQGTTVTVSSASTKGPSVFPLAPSSKSTSGGTAALGCLVKDYFPEPVTVSWNSGALTSGVHTFPAVLQSSGLYSLSSVVTVPSSSLGTQTYICNVNHKPSNTKVDKKVEPKSCDKTHTCPPCPAPEAAGGPSVFLFPPKPKDTLMISRTPEVTCVVVDVSHEDPEVKFNWYVDGVEVHNAKTKPREEQYASTYRVVSVLTVLHQDWLNGKEYKCKVSNKALPAPIEKTISKAKGQPREPQVYTLPPSRCELTKNQVSLSCAVKGFYPSDIAVEWESNGQPENNYKTTPPVLDSDGSFFLVSKLTVDKSRWQQGNVFSCSVMHEALHNHYTQKSLSLSPDYKDDDDK EPKSSDKTHTCPPCPAPELLGGPSVFLFPPKPKDTLMISRTPEVTCVVVDVSHEDPEVKFNWYVDGVEVHNAKTKPREEQYNSTYRVVSVLTVLHQDWLNGKEYKCKVSNKALPAPIEKTISKAKGQPREPQVCTLPPSRDELTKNQVSLWCLVKGFYPSDIAVEWESNGQPENNYKTTPPVLDSDGSFFLYSKLTVDKSRWQQGNVFSCSVMHEALHNRYTQKSLSLSP light: DIVMTQSPLSLPVTPGEPASISCRSSQSLVHSNRNTYLHWYQQKPGQAPRLLIYKVSNRFLGVPDRFSGSGSGTDFTLKISRVEAEDVGVYYCGQGTQVPYTFGQGTKLEIKRTVAAPSVFIFPPSDEQLKSGTASVVCLLNNFYPREAKVQWKVDNALQSGNSQESVTEQDSKDSTYSLSSTLTLSKADYEKHKVYACEVTHQGLSSPVTKSFNRGEC	1.02
GLS3000 S56H one-arm antibody (antibody, human IgG1, kappa, L234A L235A, N297A, name in Kabat numbering) heavy: QVQLVESGGGVVQPGRSLRLSCAASGFTFSNAWMHWVRQAPGKGLEWVAQIKAKSNNYATYYAESVKGRFTISRDDSKNSLYLQMNSLKTEDTAVYYCRYVHYGAYYGVDAWGQGTTVTVSSASTKGPSVFPLAPSSKSTSGGTAALGCLVKDYFPEPVTVSWNSGALTSGVHTFPAVLQSSGLYSLSSVVTVPSSSLGTQTYICNVNHKPSNTKVDKKVEPKSCDKTHTCPPCPAPEAAGGPSVFLFPPKPKDTLMISRTPEVTCVVVDVSHEDPEVKFNWYVDGVEVHNAKTKPREEQYASTYRVVSVLTVLHQDWLNGKEYKCKVSNKALPAPIEKTISKAKGQPREPQVYTLPPSRCELTKNQVSLSCAVKGFYPSDIAVEWESNGQPENNYKTTPPVLDSDGSFFLVSKLTVDKSRWQQGNVFSCSVMHEALHNHYTQKSLSLSPDYKDDDDK EPKSSDKTHTCPPCPAPELLGGPSVFLFPPKPKDTLMISRTPEVTCVVVDVSHEDPEVKFNWYVDGVEVHNAKTKPREEQYNSTYRVVSVLTVLHQDWLNGKEYKCKVSNKALPAPIEKTISKAKGQPREPQVCTLPPSRDELTKNQVSLWCLVKGFYPSDIAVEWESNGQPENNYKTTPPVLDSDGSFFLYSKLTVDKSRWQQGNVFSCSVMHEALHNRYTQKSLSLSP light: DIVMTQSPLSLPVTPGEPASISCRSSQSLVHSNRNTYLHWYQQKPGQAPRLLIYKVSNRFHGVPDRFSGSGSGTDFTLKISRVEAEDVGVYYCGQGTQVPYTFGQGTKLEIKRTVAAPSVFIFPPSDEQLKSGTASVVCLLNNFYPREAKVQWKVDNALQSGNSQESVTEQDSKDSTYSLSSTLTLSKADYEKHKVYACEVTHQGLSSPVTKSFNRGEC	1.05
GLS3000 S56G one-arm antibody (antibody, human IgG1, kappa, L234A L235A, N297A, name in Kabat numbering) heavy: QVQLVESGGGVVQPGRSLRLSCAASGFTFSNAWMHWVRQAPGKGLEWVAQIKAKSNNYATYYAESVKGRFTISRDDSKNSLYLQMNSLKTEDTAVYYCRYVHYGAYYGVDAWGQGTTVTVSSASTKGPSVFPLAPSSKSTSGGTAALGCLVKDYFPEPVTVSWNSGALTSGVHTFPAVLQSSGLYSLSSVVTVPSSSLGTQTYICNVNHKPSNTKVDKKVEPKSCDKTHTCPPCPAPEAAGGPSVFLFPPKPKDTLMISRTPEVTCVVVDVSHEDPEVKFNWYVDGVEVHNAKTKPREEQYASTYRVVSVLTVLHQDWLNGKEYKCKVSNKALPAPIEKTISKAKGQPREPQVYTLPPSRCELTKNQVSLSCAVKGFYPSDIAVEWESNGQPENNYKTTPPVLDSDGSFFLVSKLTVDKSRWQQGNVFSCSVMHEALHNHYTQKSLSLSPDYKDDDDK EPKSSDKTHTCPPCPAPELLGGPSVFLFPPKPKDTLMISRTPEVTCVVVDVSHEDPEVKFNWYVDGVEVHNAKTKPREEQYNSTYRVVSVLTVLHQDWLNGKEYKCKVSNKALPAPIEKTISKAKGQPREPQVCTLPPSRDELTKNQVSLWCLVKGFYPSDIAVEWESNGQPENNYKTTPPVLDSDGSFFLYSKLTVDKSRWQQGNVFSCSVMHEALHNRYTQKSLSLSP light: DIVMTQSPLSLPVTPGEPASISCRSSQSLVHSNRNTYLHWYQQKPGQAPRLLIYKVSNRFGGVPDRFSGSGSGTDFTLKISRVEAEDVGVYYCGQGTQVPYTFGQGTKLEIKRTVAAPSVFIFPPSDEQLKSGTASVVCLLNNFYPREAKVQWKVDNALQSGNSQESVTEQDSKDSTYSLSSTLTLSKADYEKHKVYACEVTHQGLSSPVTKSFNRGEC	0.92
GLS3000 S56K one-arm antibody (antibody, human IgG1, kappa, L234A L235A, N297A, name in Kabat numbering) heavy: QVQLVESGGGVVQPGRSLRLSCAASGFTFSNAWMHWVRQAPGKGLEWVAQIKAKSNNYATYYAESVKGRFTISRDDSKNSLYLQMNSLKTEDTAVYYCRYVHYGAYYGVDAWGQGTTVTVSSASTKGPSVFPLAPSSKSTSGGTAALGCLVKDYFPEPVTVSWNSGALTSGVHTFPAVLQSSGLYSLSSVVTVPSSSLGTQTYICNVNHKPSNTKVDKKVEPKSCDKTHTCPPCPAPEAAGGPSVFLFPPKPKDTLMISRTPEVTCVVVDVSHEDPEVKFNWYVDGVEVHNAKTKPREEQYASTYRVVSVLTVLHQDWLNGKEYKCKVSNKALPAPIEKTISKAKGQPREPQVYTLPPSRCELTKNQVSLSCAVKGFYPSDIAVEWESNGQPENNYKTTPPVLDSDGSFFLVSKLTVDKSRWQQGNVFSCSVMHEALHNHYTQKSLSLSPDYKDDDDK EPKSSDKTHTCPPCPAPELLGGPSVFLFPPKPKDTLMISRTPEVTCVVVDVSHEDPEVKFNWYVDGVEVHNAKTKPREEQYNSTYRVVSVLTVLHQDWLNGKEYKCKVSNKALPAPIEKTISKAKGQPREPQVCTLPPSRDELTKNQVSLWCLVKGFYPSDIAVEWESNGQPENNYKTTPPVLDSDGSFFLYSKLTVDKSRWQQGNVFSCSVMHEALHNRYTQKSLSLSP light: DIVMTQSPLSLPVTPGEPASISCRSSQSLVHSNRNTYLHWYQQKPGQAPRLLIYKVSNRFKGVPDRFSGSGSGTDFTLKISRVEAEDVGVYYCGQGTQVPYTFGQGTKLEIKRTVAAPSVFIFPPSDEQLKSGTASVVCLLNNFYPREAKVQWKVDNALQSGNSQESVTEQDSKDSTYSLSSTLTLSKADYEKHKVYACEVTHQGLSSPVTKSFNRGEC	1.46
GLS3000 S56I one-arm antibody (antibody, human IgG1, kappa, L234A L235A, N297A, name in Kabat numbering) heavy: QVQLVESGGGVVQPGRSLRLSCAASGFTFSNAWMHWVRQAPGKGLEWVAQIKAKSNNYATYYAESVKGRFTISRDDSKNSLYLQMNSLKTEDTAVYYCRYVHYGAYYGVDAWGQGTTVTVSSASTKGPSVFPLAPSSKSTSGGTAALGCLVKDYFPEPVTVSWNSGALTSGVHTFPAVLQSSGLYSLSSVVTVPSSSLGTQTYICNVNHKPSNTKVDKKVEPKSCDKTHTCPPCPAPEAAGGPSVFLFPPKPKDTLMISRTPEVTCVVVDVSHEDPEVKFNWYVDGVEVHNAKTKPREEQYASTYRVVSVLTVLHQDWLNGKEYKCKVSNKALPAPIEKTISKAKGQPREPQVYTLPPSRCELTKNQVSLSCAVKGFYPSDIAVEWESNGQPENNYKTTPPVLDSDGSFFLVSKLTVDKSRWQQGNVFSCSVMHEALHNHYTQKSLSLSPDYKDDDDK EPKSSDKTHTCPPCPAPELLGGPSVFLFPPKPKDTLMISRTPEVTCVVVDVSHEDPEVKFNWYVDGVEVHNAKTKPREEQYNSTYRVVSVLTVLHQDWLNGKEYKCKVSNKALPAPIEKTISKAKGQPREPQVCTLPPSRDELTKNQVSLWCLVKGFYPSDIAVEWESNGQPENNYKTTPPVLDSDGSFFLYSKLTVDKSRWQQGNVFSCSVMHEALHNRYTQKSLSLSP light: DIVMTQSPLSLPVTPGEPASISCRSSQSLVHSNRNTYLHWYQQKPGQAPRLLIYKVSNRFIGVPDRFSGSGSGTDFTLKISRVEAEDVGVYYCGQGTQVPYTFGQGTKLEIKRTVAAPSVFIFPPSDEQLKSGTASVVCLLNNFYPREAKVQWKVDNALQSGNSQESVTEQDSKDSTYSLSSTLTLSKADYEKHKVYACEVTHQGLSSPVTKSFNRGEC	0.99
